The supplement of paper PMC10567573
± gives the standard deviation.

Experiment: protein stability index of a GFP-peptide fusion (GPS, HEK-293T) (PSI 1-6); higher = more stable
Settings: c terminus: a fixed tail appended
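Further: 24-mer peptide tiles fused after GFP, lentivirally expressed, FACS-sorted into six equal bins by GFP/DsRed ratio, decoded by Illumina sequencing, PSI is the read-weighted mean bin number.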

VTVPSMLSRLLSRKRAVPCGACLT [OR3A1]
protein stability index (treatment: DMSO): 2.39 ± 0.38 | protein stability index (treatment: MLN4924 1 uM, 8 h): 2.25 ± 0.29

NIVEYLIQEQPGQEQVAGGEAQPG [FEM1A]
protein stability index (treatment: DMSO): 4.33 ± 0.25 | protein stability index (treatment: MLN4924 1 uM, 8 h): 4.15 ± 0.47

GHRYPCFFNTLHVGGTIRTCQKFL [POP5]
protein stability index (treatment: DMSO): 2.23 ± 0.48 | protein stability index (treatment: MLN4924 1 uM, 8 h): 2.03 ± 0.21

KKELEENFEKLRLSLQDQVDTLTF [MTUS2]
protein stability index (treatment: DMSO): 3.94 ± 0.64 | protein stability index (treatment: MLN4924 1 uM, 8 h): 3.8 ± 0.42

STNEEEKEENEAESDVKHRTRDYK [PRIM1]
protein stability index (treatment: DMSO): 5.57 ± 0.17 | protein stability index (treatment: MLN4924 1 uM, 8 h): 5.16 ± 0.47

FPEFCSSPSPPVEVKIEEPVSMEM [INTS3]
protein stability index (treatment: DMSO): 4.65 ± 0.32 | protein stability index (treatment: MLN4924 1 uM, 8 h): 4.82 ± 0.27

QILDSLSYMRNENVISELNIEDYF [FBXO39]
protein stability index (treatment: DMSO): 2.32 ± 0.29 | protein stability index (treatment: MLN4924 1 uM, 8 h): 2.2 ± 0.12

ECKQLSESQVKSLCEKAKEILTKE [PPP2CA]
protein stability index (treatment: DMSO): 4.64 ± 0.2 | protein stability index (treatment: MLN4924 1 uM, 8 h): 4.82 ± 0.18

VARVLRGCLENMPEADCIPKEQLS [PLK2]
protein stability index (treatment: DMSO): 3.42 ± 0.26 | protein stability index (treatment: MLN4924 1 uM, 8 h): 3.62 ± 0.13

QLCEKAPKEATVMCEQCDVFYCDP [TRIM9]
protein stability index (treatment: DMSO): 4.33 ± 0.081 | protein stability index (treatment: MLN4924 1 uM, 8 h): 4.33 ± 0.25

GDNPYMYPEQSKGFHKAGSMLPPV [SPATS1]
protein stability index (treatment: DMSO): 3.37 ± 0.16 | protein stability index (treatment: MLN4924 1 uM, 8 h): 3.35 ± 0.27

FSLEQQLDDEDDDEEDCPNPEEYN [SRPK2]
protein stability index (treatment: DMSO): 5.61 ± 0.27 | protein stability index (treatment: MLN4924 1 uM, 8 h): 5.71 ± 0.13

VWKYFGFDTNAEGCILQWKKIYCR [ZBED1]
protein stability index (treatment: DMSO): 2.37 ± 0.56 | protein stability index (treatment: MLN4924 1 uM, 8 h): 2.2 ± 0.41

TLDPNGKTCSRVDHCAQQDHGCEQ [MATN2]
protein stability index (treatment: DMSO): 4.03 ± 0.25 | protein stability index (treatment: MLN4924 1 uM, 8 h): 4.16 ± 0.22

EELNNGEPQTEHQQESESEIDSVP [MIA2]
protein stability index (treatment: DMSO): 5.6 ± 0.24 | protein stability index (treatment: MLN4924 1 uM, 8 h): 5.52 ± 0.43

QPLEASNPALEGLTQPLQGGTPHC [DNAAF3]
protein stability index (treatment: DMSO): 5.11 ± 0.15 | protein stability index (treatment: MLN4924 1 uM, 8 h): 5.09 ± 0.35

PASGSTFRGRRDVSGSWERDQQVE [RETREG3]
protein stability index (treatment: DMSO): 4.67 ± 0.22 | protein stability index (treatment: MLN4924 1 uM, 8 h): 4.86 ± 0.28

LSQPQQGEAMLANFKPRGYSECIV [GAN]
protein stability index (treatment: DMSO): 3.13 ± 0.21 | protein stability index (treatment: MLN4924 1 uM, 8 h): 3.02 ± 0.37

QEKKLSFIEALIQQYQEQLDKSTK [TRIM63]
protein stability index (treatment: DMSO): 2.82 ± 0.19 | protein stability index (treatment: MLN4924 1 uM, 8 h): 3.11 ± 0.5

IVEDPQTKCEYMLNSMPKRLCLVC [ESRRG]
protein stability index (treatment: DMSO): 2.39 ± 0.46 | protein stability index (treatment: MLN4924 1 uM, 8 h): 2.05 ± 0.24

SSGNTVLLLILCMQHSFPEPGRLY [TMEM192]
protein stability index (treatment: DMSO): 3.1 ± 0.73 | protein stability index (treatment: MLN4924 1 uM, 8 h): 3.09 ± 0.53

QGSPAVDKERFTTLVQDLANAFQQ [CHIT1]
protein stability index (treatment: DMSO): 3.13 ± 0.25 | protein stability index (treatment: MLN4924 1 uM, 8 h): 3.48 ± 0.22

YGLQGGMAFLDKRLQVKEHQHEEI [ATL3]
protein stability index (treatment: DMSO): 3.06 ± 0.51 | protein stability index (treatment: MLN4924 1 uM, 8 h): 3.39 ± 0.65

EEEMNALRGQVGGEINVEMDAAPG [KRT17]
protein stability index (treatment: DMSO): 5.45 ± 0.34 | protein stability index (treatment: MLN4924 1 uM, 8 h): 5.53 ± 0.13

MRARDSVYHIECFRCSVCSRQLLP [ISL2]
protein stability index (treatment: DMSO): 2.2 ± 0.24 | protein stability index (treatment: MLN4924 1 uM, 8 h): 2.22 ± 0.35

KATAAFSNVGTAISKKFGDMSYSI [TPD52L1]
protein stability index (treatment: DMSO): 2.72 ± 0.14 | protein stability index (treatment: MLN4924 1 uM, 8 h): 2.72 ± 0.13

PGHSGVSCEEVAASSASLEPMWSG [EMID1]
protein stability index (treatment: MLN4924 1 uM, 8 h): 5.08 ± 0.08

MTVEKEAPDAHFTVDKQNISLWPR [CD207]
protein stability index (treatment: DMSO): 3.58 ± 0.36 | protein stability index (treatment: MLN4924 1 uM, 8 h): 3.86 ± 0.5

VSCFLTFNIFDWLGRSLTAVFMWP [SLC29A1]
protein stability index (treatment: DMSO): 3.03 ± 0.07 | protein stability index (treatment: MLN4924 1 uM, 8 h): 3.502 ± 0.017

APPSTRTSHSLPESSVPSTVGCSS [PLEKHN1]
protein stability index (treatment: DMSO): 4.94 ± 0.45 | protein stability index (treatment: MLN4924 1 uM, 8 h): 5.23 ± 0.18

GLSTEAEQPFIPVEVLVDLFLKEG [PRAME]
protein stability index (treatment: DMSO): 3.05 ± 0.11 | protein stability index (treatment: MLN4924 1 uM, 8 h): 3.3 ± 0.33

QTAVQFQQYAAQQYPGNYEQQQIL [ACBD3]
protein stability index (treatment: DMSO): 3.71 ± 0.22 | protein stability index (treatment: MLN4924 1 uM, 8 h): 3.61 ± 0.23

QIPTQNTQARQVMEREFNNLLALG [PPFIA4]
protein stability index (treatment: DMSO): 3.56 ± 0.12 | protein stability index (treatment: MLN4924 1 uM, 8 h): 3.37 ± 0.21

SLKLIKRLYVDKSLNLSTEFISST [SERPINB5]
protein stability index (treatment: DMSO): 2.38 ± 0.26 | protein stability index (treatment: MLN4924 1 uM, 8 h): 2.11 ± 0.15

QAQPAIPRPNRLFLRQLRASHLGN [C2CD2L]
protein stability index (treatment: DMSO): 3.09 ± 0.33 | protein stability index (treatment: MLN4924 1 uM, 8 h): 3.08 ± 0.27

KNNDLVVAVNGESVETLDHDSVVE [PDZK1]
protein stability index (treatment: DMSO): 5.37 ± 0.27 | protein stability index (treatment: MLN4924 1 uM, 8 h): 5.34 ± 0.14

GSWGSFQLPGLLNFGEFKCSDSDK [CLCN6]
protein stability index (treatment: DMSO): 3.99 ± 0.29 | protein stability index (treatment: MLN4924 1 uM, 8 h): 4.17 ± 0.57

TAPSGGQWGAEPEGSCYQTFRQYC [RNF208]
protein stability index (treatment: DMSO): 2.75 ± 0.29 | protein stability index (treatment: MLN4924 1 uM, 8 h): 2.89 ± 0.18

LQDLALQGAKERAHQQKKHSGFED [CHGA]
protein stability index (treatment: DMSO): 4.92 ± 0.29 | protein stability index (treatment: MLN4924 1 uM, 8 h): 5.06 ± 0.22

RIFKLSRHSKGLQILGQTLKASMR [KCNA1]
protein stability index (treatment: DMSO): 2.54 ± 0.4 | protein stability index (treatment: MLN4924 1 uM, 8 h): 2.65 ± 0.58

KKIFKSHLKSSRNSTSVKKKSSRN [P2RY14]
protein stability index (treatment: DMSO): 3.87 ± 0.32 | protein stability index (treatment: MLN4924 1 uM, 8 h): 4.22 ± 0.41

RERIQILKTSEVTQHLPRECLPEN [PTPN9]
protein stability index (treatment: DMSO): 4.46 ± 0.19 | protein stability index (treatment: MLN4924 1 uM, 8 h): 4.36 ± 0.31

DEPYEKVVDRIQSSGKNVTLLVCG [PDZK1]
protein stability index (treatment: MLN4924 1 uM, 8 h): 3.5 ± 0.36

MSIMGNVLRFLPAFVRMKQLIEEG [GFOD1]
protein stability index (treatment: DMSO): 2.31 ± 0.43 | protein stability index (treatment: MLN4924 1 uM, 8 h): 2.42 ± 0.28

QKRLKSKLLDHDNVKYLKKILDEL [GDAP1]
protein stability index (treatment: DMSO): 2.1 ± 0.24 | protein stability index (treatment: MLN4924 1 uM, 8 h): 2.19 ± 0.22

QDFPVKKRKKLSTWKQELLKLMDR [ZNF75A]
protein stability index (treatment: DMSO): 2.5 ± 0.11 | protein stability index (treatment: MLN4924 1 uM, 8 h): 2.53 ± 0.17

YLRCIQSEVSFEGAYGNLKRLYDK [SMG5]
protein stability index (treatment: DMSO): 2.61 ± 0.26 | protein stability index (treatment: MLN4924 1 uM, 8 h): 2.64 ± 0.34

ERGPYRTRKHAHHCHKRRTRSCSS [CLK3]
protein stability index (treatment: DMSO): 4.42 ± 0.24 | protein stability index (treatment: MLN4924 1 uM, 8 h): 4.51 ± 0.15

HGLLGSPVRAAASSPVTTLTQTMH [CDC25B]
protein stability index (treatment: DMSO): 3.7 ± 0.21 | protein stability index (treatment: MLN4924 1 uM, 8 h): 3.79 ± 0.17

KLVDAIVSGDTSKLMKILQPQDVD [RIPK4]
protein stability index (treatment: DMSO): 2.51 ± 0.31 | protein stability index (treatment: MLN4924 1 uM, 8 h): 2.38 ± 0.64

PMPLAPTRSHLWEAAQVVPDGLGL [TRIB3]
protein stability index (treatment: DMSO): 3.48 ± 0.32 | protein stability index (treatment: MLN4924 1 uM, 8 h): 3.34 ± 0.23

LALGPGESLPHRLSCLGQQQQEPP [PLAGL1]
protein stability index (treatment: DMSO): 4.145 ± 0.038 | protein stability index (treatment: MLN4924 1 uM, 8 h): 4.23 ± 0.15

QTESGSEEVSSTVHIETFTTRHGE [C10orf62]
protein stability index (treatment: DMSO): 5.21 ± 0.3 | protein stability index (treatment: MLN4924 1 uM, 8 h): 5.27 ± 0.34

RKDTKEIYTHFTCATDTKNVQFVF [GNAI1]
protein stability index (treatment: DMSO): 2.49 ± 1 | protein stability index (treatment: MLN4924 1 uM, 8 h): 2.64 ± 0.43

AALNAHSDCCRKLLSSGFEIDTPD [ANKRD44]
protein stability index (treatment: DMSO): 3.61 ± 0.24 | protein stability index (treatment: MLN4924 1 uM, 8 h): 3.59 ± 0.42

RFTGTMDAFVKIVRHEGTRTLWSG [SLC25A39]
protein stability index (treatment: DMSO): 2.53 ± 0.52 | protein stability index (treatment: MLN4924 1 uM, 8 h): 2.47 ± 0.25

EVANFYYEADCLAAAYGGKAAPAA [CEBPB]
protein stability index (treatment: DMSO): 2.91 ± 0.38 | protein stability index (treatment: MLN4924 1 uM, 8 h): 2.83 ± 0.38

CSNLVKTRRRAVGWWKRLFTLKEE [ARL6IP1]
protein stability index (treatment: DMSO): 2.42 ± 0.28 | protein stability index (treatment: MLN4924 1 uM, 8 h): 2.6 ± 0.21

GYRCFVCPVEYNNDTNSFTVDCEP [CDS2]
protein stability index (treatment: DMSO): 2.35 ± 0.47 | protein stability index (treatment: MLN4924 1 uM, 8 h): 2.58 ± 0.51

FQQNHLFWLQNSSPSSDRVSAIIW [PHTF1]
protein stability index (treatment: DMSO): 2.26 ± 0.6 | protein stability index (treatment: MLN4924 1 uM, 8 h): 2.43 ± 0.49

NMHLNLRPFDCPVCNKKFKMKHHL [ZBTB22]
protein stability index (treatment: DMSO): 2.4 ± 0.2 | protein stability index (treatment: MLN4924 1 uM, 8 h): 2.81 ± 0.35

NSWMGSQGPMSQRRENYGVPPRRA [RBMY1A1]
protein stability index (treatment: DMSO): 4.65 ± 0.26 | protein stability index (treatment: MLN4924 1 uM, 8 h): 4.28 ± 0.16

SPINSPARGTPSPKRMPSGRGGRD [FSD1]
protein stability index (treatment: DMSO): 5.22 ± 0.15 | protein stability index (treatment: MLN4924 1 uM, 8 h): 5.04 ± 0.35

VKHQCCPGCGYFCTAGNFMECQPE [EHMT1]
protein stability index (treatment: DMSO): 3.31 ± 0.19 | protein stability index (treatment: MLN4924 1 uM, 8 h): 3.31 ± 0.5

LTLQVLVAGNPQDTRLRYSFFVPR [ADAMTS4]
protein stability index (treatment: DMSO): 3.13 ± 0.4 | protein stability index (treatment: MLN4924 1 uM, 8 h): 3.19 ± 0.44
